Laboratory results published in patent EP0799891A1.

Tests used:
[1] = target: human Fas antigen on human lymphocyte cell line HPB-ALL (human) (UniProt P25445); experiment: cell-based or functional assay
[2] = target: fusion protein consisting of the extracellular region of the human Fas antigen and the extracellular region of the mouse interleukin 3 receptor (encoded by phFas-AIC2) (human; mouse) (UniProt P25445); experiment: ELISA; plate coated with COS-1 supernatant holding the human Fas ECD-mouse IL-3 receptor ECD fusion; detection with peroxidase-labelled rat anti-mouse IgM; PBS blank 0.104

| Substance | OD590 - OD620 (MTT assay, viable HPB-ALL cells) (OD590 - OD620) [1] | OD405 - OD492 (OD405 - OD492) [2] | ED50 [1] [µg/mL] | activity (cytotoxicity, ED50 test) relative to CH11 and supernatant [F] [1] [fold] |
| --- | --- | --- | --- | --- |
| CH11 L chain alone, COS-1 culture supernatant of cells transfected with pLEX004 | 0.887 | 0.135 | – | – |
| recombinant CH11 H chain + L chain product in COS-1 culture supernatant [E] (pHEX126 and pLEX004), without J chain (antibody) | 0.176 | 0.33 | 0.0045 | 5 |
| CH11 H chain alone, COS-1 culture supernatant of cells transfected with pHEX126 | 0.876 | 0.109 | – | – |
| recombinant CH11 H chain + L chain + J chain product in COS-1 culture supernatant [F] (pHEX126, pLEX004 and pJEX004) (antibody) | 0.242 | 0.202 | 0.0229 | – |
| CH11 J chain alone, COS-1 culture supernatant of cells transfected with pJEX004 | 0.883 | 0.107 | – | – |
| mouse anti-human Fas monoclonal antibody CH11 (IgM), purified from hybridoma culture supernatant | – | 0.445 | 0.0212 | – |
